± gives the standard deviation of the averaged measurements.
Test system: Saccharomyces cerevisiae
Test: protein stability index of tFT-peptide fusion (C-terminal peptide) (PSI (0-1 scale)); higher = more stable (slower turnover)
Conditions: genetic background: wild type; temperature: 30 C
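Further: PSI is a weighted mean of sequencing reads over stability bins, variants kept only with over 10 reads, mCherry proximal and sfGFP distal, peptide attached via GGGS linker.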

Sequence | protein stability index
GWVGGCGCGRGI | 0.694 ± 0.034
SHTLIRRGTHFP | 0.683 ± 0.0094
VPITLRFSFLTP | 0.598 ± 0.073
AGQTLARLYTRS | 0.614 ± 0.12
CGRERIEGGGGD | 0.643 ± 0.1
PRRSPPCSTPPP | 0.726 ± 0.077
CECANLIAHFCV | 0.6253 ± 0.0059
SEKILCTGECAA | 0.619 ± 0.07
LPPPPYPEFYPC | 0.772 ± 0.0089
AGCRCHSKKAAT | 0.624 ± 0.027
GSYRSSPFKDPK | 0.686 ± 0.037
LISVWQLDVRSG | 0.579 ± 0.0023
LLVTPAPRSTHF | 0.648 ± 0.064
PRPPTPPTTILN | 0.652 ± 0.032
LPPPLVPPLPSP | 0.7017 ± 0.0023
VIFIRCFNFQDG | 0.614 ± 0.052
SFPPLCLSFPVF | 0.65 ± 0.02
SPTNNTSTQSQT | 0.686 ± 0.012
KNSTKHIKNEKN | 0.774 ± 0.044
PLSPLAPPPAPS | 0.661 ± 0.075
PPTPPTARPIVL | 0.677 ± 0.018
APRRPPQHPTLL | 0.626 ± 0.038
TPLPLPPPRPSP | 0.685 ± 0.0031
LSLGVYMGVGRG | 0.629 ± 0.0074
ILDRRTKREDLK | 0.667 ± 0.038
LTPFFSRPSVLL | 0.72 ± 0.019

Sequence | protein stability index
LARGPDETPAGA | 0.668 ± 0.18
YWVPPDTIKSAI | 0.7362 ± 0.0032
GWMSGTPEFLGS | 0.707 ± 0.025
IRDLFHHFFLSV | 0.654 ± 0.038
SHVVRHVSTVEK | 0.7 ± 0.023
PPAPLPSPRRSL | 0.696 ± 0.065
SMSPHKCSVCFC | 0.644 ± 0.045
KKKKKKYRKKKK | 0.668 ± 0.0087
GSRFCPHVGICI | 0.657 ± 0.019
RPLVSRLPIFIR | 0.506 ± 0.014
PNTSVAATPHDF | 0.67 ± 0.085
RPPPPPPPPPSP | 0.723 ± 0.089
LLSPLLLLASLS | 0.534 ± 0.013
EYTIKTENKYKI | 0.747 ± 0.13
LYLCFDVVKDLG | 0.582 ± 0.015
RSGVSCPRVDDR | 0.643 ± 0.05
IRSRSVTKYGWS | 0.606 ± 0.025
PFRPPPPPSSPP | 0.735 ± 0.037
SRGNIPVCEGWS | 0.742 ± 0.028
HRKVCARHNWEE | 0.673 ± 0.046
LLFSNRKVGQQF | 0.708 ± 0.011
KKKQKKKKHEQK | 0.7 ± 0.034
IGGGPLWLVNNM | 0.6748 ± 0.0054
LVFCPCQSVVSL | 0.59 ± 0.043
EETRLQEVNRIL | 0.737 ± 0.033
YSLYVHPPNLYQ | 0.6604 ± 0.0015

Sequence | protein stability index
WGLGFRLVFWSV | 0.5289 ± 0.0022
GWRGGGSDGGLR | 0.718 ± 0.086
LSFPSPSLCRPL | 0.694 ± 0.1
GGGGGVGVEGEP | 0.723 ± 0.067
SCLALLSLLIDF | 0.57 ± 0.021
HEGHVWGIRGTG | 0.683 ± 0.11
TQSNRKPLECPS | 0.679 ± 0.066
PPSRPPAPSPRS | 0.695 ± 0.037
WCVCGVWVGLWG | 0.71 ± 0.076
LSDDRTLFWISG | 0.728 ± 0.13
RAVHSSPHVSLS | 0.681 ± 0.013
KELESKLISKKR | 0.75 ± 0.068
ADVVVGWWVSGW | 0.791 ± 0.1
LLPSLSPPPTPP | 0.655 ± 0.051
PGLCGGRRCVAL | 0.638 ± 0.073
NVNNNICTYRAI | 0.6776 ± 0.0046
LPLRPPPSLLSR | 0.689 ± 0.064
SENNLKHEKVIE | 0.735 ± 0.22
RPLSSPPTRSRA | 0.751 ± 0.038
NLRFLFFSSSRF | 0.682 ± 0.017
SIERNEGRKKLG | 0.708 ± 0.064
IGTGHPRTGLSR | 0.682 ± 0.031
TSLPPNLMRTAA | 0.634 ± 0.04
SGAATSRRGLCS | 0.672 ± 0.013
VLRSTQGAINRI | 0.717 ± 0.02
KSKKQYTKKTRK | 0.709 ± 0.0078

Sequence | protein stability index
FLVFFRRPSRFF | 0.5856 ± 0.0058
DDQLACSHDIDS | 0.643 ± 0.019
PLTACPSAPTLP | 0.667 ± 0.0078
GRCLRITMACYI | 0.646 ± 0.035
YCLLGHIYKPLS | 0.679 ± 0.011
PPPPHSFTPSGH | 0.673 ± 0.12
SAMIKRIIGMHY | 0.634 ± 0.048
GGGRAAIVRGGW | 0.682 ± 0.014
LVPTQGDFVVLL | 0.721 ± 0.053
LPRSSRFPSPSR | 0.765 ± 0.012
LFPSFRSLSFVI | 0.672 ± 0.035
HQRIKLMPEVWS | 0.689 ± 0.056
FNVSNPVSLQTG | 0.641 ± 0.021
PKTPRFWLLFPA | 0.699 ± 0.022
PPSHGRSSQSPR | 0.731 ± 0.1
GHSLARHRHRGS | 0.701 ± 0.0095
PLLPRLPPLSPP | 0.691 ± 0.07
FLSRFLSCLFYF | 0.576 ± 0.028
SVSPRPSPPAVP | 0.708 ± 0.13
EFPPPPSSRSCA | 0.712 ± 0.013
RARVVRRWDTCG | 0.697 ± 0.086
GPVVGGWSVVSK | 0.655 ± 0.058
ETKSDRHDRTGT | 0.655 ± 0.015
VFRFAPILHSHR | 0.585 ± 0.019
HGSDLSILRIEI | 0.722 ± 0.07
GTRRHSFCSGTG | 0.703 ± 0.054

Sequence | protein stability index
DGQNPVAFGSHG | 0.691 ± 0.057
DSYELGICCSSS | 0.6678 ± 0.0019
RNIKIGKYMKRI | 0.729 ± 0.034
YKMTFVRGQGYE | 0.69 ± 0.041
SRNVGRWSLRVV | 0.632 ± 0.024
WGGGGGRGGMGG | 0.693 ± 0.055
VRFGWCLGSGDG | 0.702 ± 0.068
HHPTTQRLSVIH | 0.742 ± 0.042
ASVWSLPSIVLT | 0.519 ± 0.074
LPSLTPPPLLLS | 0.582 ± 0.0083
PLSPPPPFPFPP | 0.71 ± 0.064
LLFPCSVGLGVV | 0.686 ± 0.077
PVPRNRQRWREP | 0.663 ± 0.017
QQCVTGKSFYGI | 0.856 ± 0.14
EGTPLTIQRIGE | 0.666 ± 0.094
HHRRRRTTDVSL | 0.75 ± 0.049
IEKVKIMNKERN | 0.692 ± 0.017
LGYRCETNYVPD | 0.631 ± 0.023
GLASLTVGAASV | 0.671 ± 0.011
HPFSLGSLVASW | 0.6412 ± 0.0027
SQPIRAMILRVP | 0.53 ± 0.00096
KNMNQIKKKNRE | 0.664 ± 0.061
ASSLHFLYLPAL | 0.709 ± 0.062
GDHPPMETISRP | 0.734 ± 0.095
GDIGAGMGVVGE | 0.641 ± 0.0049
APPPLCCPPLAP | 0.735 ± 0.1

Sequence | protein stability index
SWMDRGGSYSGI | 0.684 ± 0.12
HPPSLPPLPPPL | 0.727 ± 0.054
LAPPHLPPPLHK | 0.678 ± 0.053
SPRLLHPLPSFL | 0.7114 ± 0.0066
RGGWRGVWGHVV | 0.599 ± 0.033
PRPPYHAPSTFP | 0.575 ± 0.074
GLLRSHYLDRGF | 0.693 ± 0.047
WVNWRWRAVVPG | 0.6188 ± 0.0025
PLPLPSPPPASP | 0.732 ± 0.025
REGRRSVWGVSW | 0.685 ± 0.023
QIEQQKHKQPLI | 0.6859 ± 0.0024
RGPARFYVRVSV | 0.498 ± 0.0077
HPPRPPPRSPPP | 0.656 ± 0.1
GVEAGMGRTLWL | 0.792 ± 0.099
EKGRGGIGSRGK | 0.768 ± 0.064
FLPPSVYAHPFP | 0.743 ± 0.083
GYLVPLPSSGSS | 0.661 ± 0.057
KKEKKKTKKEKR | 0.696 ± 0.067
SGGGAGKRVCEG | 0.704 ± 0.015
PFSFSSLSASVF | 0.7033 ± 0.0025
RHPTITAPTPTP | 0.748 ± 0.063
GGGVGLGGYGEG | 0.636 ± 0.055
ERRQADRHRTTP | 0.766 ± 0.05
PLRYRPPPPPPP | 0.672 ± 0.031
SQLGDGLLGEGV | 0.697 ± 0.044
PCSRVICASEFT | 0.701 ± 0.045

Sequence | protein stability index
RGSIKSYNTRKT | 0.728 ± 0.009
LPLFTIVPPFFF | 0.59 ± 0.011
FTSLCLLFLFSL | 0.616 ± 0.085
LAAVCFYPFCCF | 0.641 ± 0.017
RTSEAGKQHEWK | 0.695 ± 0.0074
GSSPLLFSLLES | 0.751 ± 0.076
TFSVNLGAASAK | 0.662 ± 0.042
IPPLNQDPFCAS | 0.678 ± 0.017
RFTNHPTRQTTG | 0.676 ± 0.088
LLFRSPPPTVHS | 0.769 ± 0.088
VLPLRPGRKLSG | 0.664 ± 0.054
RGMVPREKHQNS | 0.683 ± 0.013
YTKIIPIFPEQL | 0.631 ± 0.03
RESIEGGGAPRD | 0.747 ± 0.11
GGVPGEGTGGRE | 0.644 ± 0.027
QDHIGSTEGYKH | 0.663 ± 0.074
GPRAGFRRPELE | 0.733 ± 0.043
PRPFPLSCSPPV | 0.751 ± 0.083
GARPTKCCSYGT | 0.683 ± 0.011
SFPLLFPVSSRL | 0.8641 ± 0.0077
ELKGHIPFTLSR | 0.703 ± 0.04
PNFYPLWLNLPL | 0.813 ± 0.086
PHPPPPPPPHSP | 0.715 ± 0.08
KRKKNISKTEKS | 0.724 ± 0.016
TFFGEDVGVVVD | 0.69681 ± 0.00058
LPRERSFRLYKA | 0.739 ± 0.016

Sequence | protein stability index
PASSTLRPPAHP | 0.723 ± 0.18
PPHGPPPLPPPS | 0.678 ± 0.15
PPPSPPLPRHLA | 0.746 ± 0.06
FKSYNNDLQDRI | 0.728 ± 0.16
MLRSGDFSSPPN | 0.694 ± 0.042
MLGHKIILHTYI | 0.54735 ± 0.00019
YCGGWCGGWEIG | 0.709 ± 0.0075
VPPPLTSPSWHF | 0.6825 ± 0.0036
LLSLLLLSSSPP | 0.70828 ± 0.00034
SYGSLFCSHLDG | 0.6828 ± 0.0014
PPPSSPPTHLTS | 0.678 ± 0.012
EREGGWEVNKWR | 0.757 ± 0.079
PLFLPLVPPQIL | 0.682 ± 0.028
VLANAAGLEGFA | 0.681 ± 0.041
GKILSNNQIFKR | 0.702 ± 0.057
YFGSHLILSRAT | 0.665 ± 0.11
PPHPPRCRRSPC | 0.718 ± 0.037
LAAGGSAGTRVV | 0.656 ± 0.026
RSETGYGTSWGA | 0.627 ± 0.026
YPPREEPREDLA | 0.656 ± 0.026

— the supplement of paper PMC10724198
